Assay results taken from patent publication US20200407442A1 (WUXI BIOLOGICS IRELAND, published 2020).

How the values were obtained:
[1] = biological target: T1, full-length human LAG-3 on cells (human, UniProt P18627 23-525); assay: FACS competition on Flp-In-293 cells expressing human LAG-3: biotinylated BMK7 at 1 ug/mL, serially diluted antibody, Streptavidin-PE
T1 construct: Expressed on Flp-In-293, CHO or 293F transfectants; also called hPro1.FL; cell surface human LAG-3
T1 sequence: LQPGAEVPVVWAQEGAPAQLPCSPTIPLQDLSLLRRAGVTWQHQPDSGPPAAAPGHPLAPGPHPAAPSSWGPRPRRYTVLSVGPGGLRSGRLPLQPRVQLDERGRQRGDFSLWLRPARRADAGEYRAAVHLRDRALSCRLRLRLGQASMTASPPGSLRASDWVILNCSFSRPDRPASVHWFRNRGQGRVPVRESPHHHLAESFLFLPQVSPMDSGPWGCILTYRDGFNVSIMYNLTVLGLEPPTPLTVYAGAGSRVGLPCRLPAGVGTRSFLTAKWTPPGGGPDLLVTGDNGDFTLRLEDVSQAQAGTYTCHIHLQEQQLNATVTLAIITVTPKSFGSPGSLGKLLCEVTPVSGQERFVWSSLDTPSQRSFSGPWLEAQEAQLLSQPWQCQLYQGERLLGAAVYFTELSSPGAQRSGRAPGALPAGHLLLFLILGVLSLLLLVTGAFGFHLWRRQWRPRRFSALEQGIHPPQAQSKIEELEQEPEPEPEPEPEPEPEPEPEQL
Description: (§1) The binding epitope of LAG-3 antibodies was binned against benchmark antibodies BMK1, BMK7 and BMK5 by FACS assay. Flp-In-293 cells expressing human LAG-3 at the cell surface were incubated with biotinylated benchmark antibodies at concentration of 1 μg/mL for 1 hour, followed by the adding of serially diluted LAG-3 antibodies. Streptavidin-PE antibody (Jackson Immunoresearch Lab) was used to detect the binding of benchmark antibodies to cells. The MFI was evaluated by flow cytometry and analyzed by FlowJo.

[2] = biological target: T1, full-length human LAG-3 on cells; assay: FACS competition on Flp-In-293 cells expressing human LAG-3: biotinylated BMK5 at 1 ug/mL, serially diluted antibody, Streptavidin-PE
Description: as §1

[3] = biological target: T2, full-length mouse LAG-3 on cells (mouse, UniProt Q61790 24-521); assay: FACS on murine LAG-3-expressing Flp-In-CHO cells, MFI
T2 construct: also called mPro1.FL; murine LAG-3
T2 sequence: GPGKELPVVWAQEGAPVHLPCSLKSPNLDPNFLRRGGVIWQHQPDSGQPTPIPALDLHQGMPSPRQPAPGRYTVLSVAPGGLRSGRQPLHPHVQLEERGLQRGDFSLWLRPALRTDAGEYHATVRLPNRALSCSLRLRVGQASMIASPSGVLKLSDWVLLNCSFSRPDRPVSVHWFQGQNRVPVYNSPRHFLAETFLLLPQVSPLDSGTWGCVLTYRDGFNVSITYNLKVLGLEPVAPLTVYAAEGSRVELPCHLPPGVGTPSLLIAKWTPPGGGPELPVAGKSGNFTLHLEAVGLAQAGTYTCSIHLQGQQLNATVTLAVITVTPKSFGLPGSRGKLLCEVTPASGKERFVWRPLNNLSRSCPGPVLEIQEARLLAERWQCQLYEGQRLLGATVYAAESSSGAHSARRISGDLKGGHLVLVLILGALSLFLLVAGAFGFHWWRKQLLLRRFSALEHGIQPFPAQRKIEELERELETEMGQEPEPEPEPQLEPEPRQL
Description: Cross-reactivity to cynomolgus and murine LAG-3 was measured by FACS. Murine LAG-3-expressing Flp-In-CHO cells or cynomolgus LAG-3-expressing 293F cells were transferred into 96-well U-bottom plates at a density of 1×10⁵ cells/well. Testing antibodies were serially diluted in wash buffer (1×PBS/1%BSA) and incubated with cells at 4° C. for 1 h. After washing with 1×PBS/1%BSA, corresponding secondary antibody was applied and incubated with cells at 4 ° C. in the dark for 1 h. The cells were then washed and resuspended in 1×PBS/1%BSA and then analyzed by flow cytometry.

B1: 1.53.3-uAb-IgG4k (antibody, V domains shown)
VH: QVQLQQWGAGLLKPSETLSLTCGVYGGSFSGYYWSWIRQPPGMGLEWIGEINHRGNTNYNPSLKSRVTISEDTSKNQFSLRLSSVTAADTAVYFCTRGEDYSDYDYYGDFWGQGTLVTVSS
VL: EIVLTQSPATLSLSQGERATLSCRASQSISSYLAWYQQKPGQAPRLLIYAASNRATGIPARFSGSGSGTDFTLTISSLEPEDFAIYYCQQRSNWPLTFGGGTKVEIK
notes: Fully human antibody from OMT rats; IgG4 kappa by its name
In the case of B1, the “IC50 (read off the curve)” value [1] is reported as about 3 nM, the “IC50 (read off the curve)” value [2] is reported as about 1 nM and the binding result [3] is reported as “no binding (tested: 6.7 nM)”.
